Test results published in PMC6894278, “Enzymatic synthesis of L-fucose from L-fuculose using a fucose isomerase from Raoultella sp. and the biochemical and structural analyses of the enzyme” (Biotechnology for Biofuels, 2019).

How the values were obtained:
[1] = biological target: L-fucose isomerase from Raoultella sp. KDH14 (RdFucI) (Raoultella sp. KDH14); experiment: SEC; analytical size-exclusion chromatography, Superdex 200 10/300 GL, 10 mM Tris-HCl, 200 mM NaCl, pH 8.0; calibrated with standard proteins
[2] = biological target: L-fucose isomerase from Raoultella sp. KDH14 (RdFucI) (Raoultella sp. KDH14); experiment: crystal structure; six subunits in the asymmetric unit; crystals grown in 0.1 M HEPES pH 7.5, 20% (w/v) PEG 10,000 at 20 °C; also soaked with 10 mM Mn2+
[3] = substrate: O=C(CO)[C@H](O)[C@H](O)CO; experiment: isomerase kinetics, D-ribulose to D-arabinose; type: biochemical, Klebsiella planticola; details: 1 mM MnCl2 (general assay); pH and temperature of the kinetics not stated in main text; pH 10.0; 40.0 °C
Description: isomerase kinetics, D-ribulose to D-arabinose on RdFucI | Kinetic parameters were determined using L-fuculose and D-ribulose as the substrates

“L-fucose isomerase from Raoultella sp. KDH14 (RdFucI) (enzyme)” showed a stoichiometry N [1] of 6 and a stoichiometry N [2] of 6.

B1: RdFucI (Klebsiella planticola) (protein)
chain: MKRISLPKIGIRPVIDGRRMGVRESLEEQTMNMAKATAALISEKLRHASGAQIECVIADTCIAGMAESAACEEKFSSQNVGVTITVTPCWCYGSETIDMDPLRPKAIWGFNGTERPGAVYLAAALAAHSQKGIPAFSIYGHDVQDADDTTIPADVEEKLLRFARAGLAVASMKGKSYLSVGGVSMGIAGSIVDHNFFESWLGMKVQAVDMTELRRRIDQKIYDEVELEMALAWADKNFRYGEDQNAQHYKRDEEQSRAVLKESLLMAMCIRDMMQGNKKLAEKGLVEESLGYNAIAAGFQGQRHWTDQYPNGDTAEALLNSSFDWNGVREPFVVATENDSLNGVAMLMGHQLTGTAQVFADVRTYWSPDAVERVTGQPLTGLAEHGIIHLINSGSAALDGSCKQRDEEGKPTMKPHWEISQKEADACLAATEWCPAIHEYFRGGGYSSRFLTEGGVPFTMTRVNIIKGLGPVLQIAEGWSVELPKAMHDQLDARTNSTWPTTWFAPRLTGKGPFADVYSVMANWGANHGVLTIGHVGADFITLAAMLRIPVCMHNVEEGKIYRPSSWSAHGMDTEGQDYRACQNYGPLYKR
notes: N-terminal His6 tag (pET28a, NdeI/EcoRI), E. coli BL21(DE3); tag removal not mentioned; homohexamer
B1 gave a Km [3] of 13.7 ± 1.1 mM, a kcat [3] of 138 ± 5.69 s⁻¹ and a kcat/Km [3] of 10100 ± 493 M⁻¹ s⁻¹.
